Reference: publication PMC4482583, “The Dimerization State of the Mammalian High Mobility Group Protein AT-Hook 2 (HMGA2)” (PLoS ONE, 2015)
No end group written: not given here. TMR = tetramethylrhodamine-5-maleimide

How the values were obtained:
[1] = molecular target: the molecule itself; test: cross-linking; EDC (2 mM, zero-length) in MES buffer (10 mM MES, pH 5.5, 50 mM NaCl), 2 hours at 24°C; 29-116 μM protein; 15% SDS-PAGE, Coomassie
[2] = molecular target: the molecule itself; test: FRET or BRET; 20 nM HMGA2-FM titrated with HMGA2-TMR in 50 mM Tris-HCl (pH 8.0), 200 mM NaCl; excitation 492 nm, read at 518 nm
[3] = molecular target: the molecule itself; test: cross-linking; EDC cross-linking of the cysteineless mutant; data not shown
HMGA2Δ95–108 = molecular target: T1, HMGA2Δ95–108 (mouse, UniProt P52927 1-94); test: SEC; CTP-TMR incubated with HMGA2Δ95–108 for 30 minutes at 24°C, resolved on Sephacryl S-100 HR (1×50 cm) in BPES buffer; OD556 and SDS-PAGE of fractions; conditions: both partners purified
T1 construct: also called mutant that lacks the negatively charged C-terminus; source: made by PCR-based site directed mutagenesis, purified as described previously [26]
T1 sequence (looked up): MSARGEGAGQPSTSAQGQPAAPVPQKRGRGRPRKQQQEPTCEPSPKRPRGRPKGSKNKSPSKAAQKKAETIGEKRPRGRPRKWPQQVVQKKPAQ

B1: mammalian high mobility group protein AT-hook 2 (HMGA2) (natural protein, mouse, UniProt P52927 1-108, looked up)
chain: MSARGEGAGQPSTSAQGQPAAPVPQKRGRGRPRKQQQEPTCEPSPKRPRGRPKGSKNKSPSKAAQKKAETIGEKRPRGRPRKWPQQVVQKKPAQETEETSSQESAEED
notes: also called mouse HMGA2; recombinant HMGA2; source: recombinant, purified as described previously [26]
[1]
  stoichiometry N: 2

B2: HMGA2 labeled with fluorescein-5-maleimide (HMGA2-FM) or tetramethylrhodamine-5-maleimide (HMGA2-TMR) (natural protein, mouse, UniProt P52927 1-108, looked up)
chain: MSARGEGAGQPSTSAQGQPAAPVPQKRGRGRPRKQQQEPTCEPSPKRPRGRPKGSKNKSPSKAAQKKAETIGEKRPRGRPRKWPQQVVQKKPAQETEETSSQESAEED
modifications: fluorescein-5-maleimide (FM) or tetramethylrhodamine-5-maleimide (TMR) on the cysteine residue
notes: labeled at its one cysteine residue; also called HMG-TMR; source: recombinant HMGA2, labeled with TMR or FM, purified (Sephadex G-50 spin columns, dialysis)
[2]
  stoichiometry N: 2

B3: HMGA2C41G (natural protein, mouse, UniProt P52927 1-108, looked up)
chain: MSARGEGAGQPSTSAQGQPAAPVPQKRGRGRPRKQQQEPTGEPSPKRPRGRPKGSKNKSPSKAAQKKAETIGEKRPRGRPRKWPQQVVQKKPAQETEETSSQESAEED
notes: also called cysteineless mutant protein; source: made by PCR-based site directed mutagenesis, purified as described previously [26]
[3]
  stoichiometry N: 2

B4: C-terminal peptide (CTP) of HMGA2 labeled with tetramethylrhodamine-5-maleimide (CTP-TMR) (peptide)
peptide: C(TMR)ETEETSSQESAEED
notes: first residue of the printed peptide H-CETEETSSQESAEED-OH; the cysteine that carries the label; the negatively charged C-terminus of HMGA2, mouse; 14 residues; also called the C-terminal peptide; source: synthetic peptide (custom-synthesized by Advanced ChemTech, Inc.), labeled with TMR, purified on SP-sepharose
HMGA2Δ95–108
  binding result: binds
